Reference: PMC7809799, “A microtubule‐LUZP1 association around tight junction promotes epithelial cell apical constriction” (The EMBO Journal, 2020)
Values belong to the molecule of their own block, whether it stands above or below them.

Tests used:
Flag‐LUZP1 (mouse) = Flag‐LUZP1 (mouse) (UniProt Q8R4U7); test: pull-down; in vitro direct binding assay: Flag‐LUZP1 on anti‐Flag M2 affinity gel beads, GST‐MLC 0–8.0 μM in HBS, RT 60 min; washed in 300 mM NaCl, 50 mM Tris–HCl pH 7.5, 1 mM EDTA, 1 mM DTT; immunoblot densitometry, Michaelis–Menten fit
HA‐PP1c β/δ = HA‐PP1c β/δ (UniProt P62141 1-327); test: cell-based or functional assay
[1] = target: Taxol‐stabilized microtubules (tubulin, Cytoskeleton Inc. #T240) (UniProt P02550); test: co-sedimentation; MT co‐sedimentation: Flag‐LUZP1 (10 μl of 7.7 nM in 20 μl) with 0–6 μM polymerized tubulin, GTP and Taxol, PME buffer/HBS, RT 60 min; 434,513 g, 25°C, 20 min; immunoblot densitometry, Michaelis–Menten fit

- Kd (Flag‐LUZP1 (mouse)): 4880 nM
Molecule: GST‐tagged di‐dephosphomimetic myosin light chain (T18A, S19A) (natural protein)

- Kd (Flag‐LUZP1 (mouse)): 850 nM
Molecule: GST‐tagged di‐phosphomimetic myosin light chain (T18D, S19D) (natural protein)

- Kd (Flag‐LUZP1 (mouse)): 4040 nM
Molecule: GST‐tagged wild‐type myosin light chain (from UniProt Q3THE2 1-172) (natural protein)

- in vitro MLC phosphorylation assay with 1 μg MTs added (25 ng GST‐MLC, 4 ng GST‐ROCK1 catalytic domain, 1 μg GST‐PP1c β/δ, 0–5 μg GST‐LUZP1): ppMLC/MLC ratio relative to the control (HA‐PP1c β/δ): 2.87 ratio relative to the control
- in vitro Merlin phosphorylation assay with 1 μg MTs added (100 ng GST‐Merlin, 2 pg PAK1, 1 μg GST‐PP1c β/δ, 0–5 μg GST‐LUZP1): pMerlin/Merlin ratio relative to the control (HA‐PP1c β/δ): 8.32 ratio relative to the control
- Kd [1]: 780 nM
B1: GFP‐LUZP1 (natural protein, mouse, UniProt Q8R4U7 1-1068, looked up)
chain: MAELTNYKDAASNRHLRFKLQSLSRRLDELEEATKNLQRAEDELLDLQDKVIQAEGSDSSTLAEIEVLRQRVLKIEGKDEEIKRAEDLCHTMKEKLEEEENLTRELKSEIERLQKRMVDLEKLEEALSRSKNECSQLCLSLNEERNLTKKISSELEMLRVKVKELESSEDRLDKTEQSLVSELEKLKSLTLSFVNERKYLNEKEKENEKIIKELTQKLEQNKKMNRDHMRNASTFLERNDLRIEDGISSTLSSKESKRKGSLDYLKQVENETRDKSENEKNRNQEDNKVKDLNQEIEKLKTQIKHFESLEEELKKMRAKNNDLQDNYLTELNRNRSLASQLEEIKLQVRKQKELGNGDIEGEDAFLLGRGRHERTKLKGHGSEASVSKHTSRELSPQHKRERLRNREFALSNEHYSLSSKQASSPVFTNKRAAKASNMGMGTDSGTQETKRTEDRFAPGSSHSEGKRGREQPSVLSRYPPAAQEHTKVWKGAPKPGTESGLKGKVEKTTRTFSDSTHVSVPNDIVGKGDKTSDLSSEAHCGKRGQVPGHASQGTQAVESSCSKAIGALSSSQKASSEGLSKGKKTANGLAADANFSNSKAPILSKYPYSSRSQENILQGFSLPNKEGVDQPVAVVMEDSSQHEALRCRVIKSSGREKPDSDDDLDIESFVTAKLVNTTITPEPEPKPQPNSREKVKSRGGTRTALFENDKNAAIENDSVKPTRPSSNAIEFPDANCAGVKNQRPFSPREALRSRAIIKPVIIDKDVKKIMGGSGTEVVLEKQKSTSKSVTSKVTSSITIYPSDSSGPRAVPSEAPRERHTSTSNIQVGPPELTAISNHVSSPLELSIHKHDITLQLTEAERVGDGSPKNRAEMVVSRSSILIKPSESVEKNSHVPPAETIRWKSHSASSDSRHITVRNAWKSKRDLKCSEDPPTGIGRNMEATNAYTQRPCTDFLELEQPRSQPSEQGARRVGNSGDAPELSPRRTQSSLTASEVLTRRDRMGGAITAASCNHSSSMEEGEDSTFVTSRRIHNPLEHSELPGKQGLPEPEPVWTEERLHPAKPYAEED
